Results from patent US20210346432A1 (Memorial Sloan Kettering, published 2021).
Values belong to the binder of their own block, whether it stands above or below them. No end group written: not given here. *: point of attachment. Biotin = O=C1N[C@H]2[C@H](CS[C@H]2CCCCC(=O)*)N1

What was measured:
ET140-p2 [1] = target: T1, ET140-p2 (human); assay: peptide ELISA, biotin peptide on streptavidin plate
T1 construct: also called peptide 2
T1 peptide: Biotin-SGSGQMAGQCSQNEYFDSL
Experimental: (§1) The peptides were coated onto Streptavidin plates at 2 ug/mL in PBST (PBS+0.05% Tween-20). After washing and blocking with 3% BSA. […] “mIgG1” used in all Examples represents that the variable region is fully human and the Fc part is mouse IgG1. Then HRP anti-mouse IgG detection antibody was added to each well. Finally, the color was developed using TMB substrate. A450 was recorded for data analysis.

ET140-p3 [2] = target: T2, ET140-p3 (human); assay: as above
T2 construct: also called peptide 3
T2 peptide: Biotin-SGSGMAGQCSQNEYFDSLL
Experimental: as §1

ET140-p4 = target: T3, ET140-p4 (human); assay: as above
T3 construct: also called peptide 4
T3 peptide: Biotin-SGSGAGQCSQNEYFDSLLH
Experimental: as §1

ET140-p10 = target: T4, ET140-p10 (human, cysteine pairing not given here); assay: as above
T4 construct: also called peptide 10
T4 peptide: Biotin-SGSGNEYFDSLLHACIPCQ
Experimental: as §1

ET140-p11 = target: T5, ET140-p11 (human, cysteine pairing not given here); assay: as above
T5 construct: also called peptide 11; ET140-pll
T5 peptide: Biotin-SGSGEYFDSLLHACIPCQL
Experimental: as §1

ET140-p16 [3] = target: T6, ET140-p16 (human, cysteine pairing not given here); assay: as above
T6 construct: also called peptide 16
T6 peptide: Biotin-SGSGLLHACIPCQLRCSSN
Experimental: as §1

ET140-p20 [4] = target: T7, ET140-p20 (human, cysteine pairing not given here); assay: as above
T7 construct: also called peptide 20
T7 peptide: Biotin-SGSGCIPCQLRCSSNTPPL
Experimental: as §1

ET140-p23 [5] = target: T8, ET140-p23 (human, cysteine pairing not given here); assay: as above
T8 construct: also called peptide 23
T8 peptide: Biotin-SGSGCQLRCSSNTPPLTCQ
Experimental: as §1

ET140-p26 = target: T9, ET140-p26 (human, cysteine pairing not given here); assay: as above
T9 construct: also called peptide 26
T9 peptide: Biotin-SGSGRCSSNTPPLTCQRYC
Experimental: as §1

ET140-p30 = target: T10, ET140-p30 (human, cysteine pairing not given here); assay: as above
T10 construct: also called peptide 30
T10 peptide: Biotin-SGSGNTPPLTCQRYCNASV
Experimental: as §1

ET140-p32 = target: T11, ET140-p32 (human, cysteine pairing not given here); assay: as above
T11 construct: also called peptide 32
T11 peptide: Biotin-SGSGPPLTCQRYCNASVTN
Experimental: as §1

ET140-p33 = target: T12, ET140-p33 (human, cysteine pairing not given here); assay: as above
T12 construct: also called peptide 33
T12 peptide: Biotin-SGSGPLTCQRYCNASVTNS
Experimental: as §1

ET140-p34 [6] = target: T13, ET140-p34 (human, cysteine pairing not given here); assay: as above
T13 construct: also called peptide 34
T13 peptide: Biotin-SGSGLTCQRYCNASVTNSV
Experimental: as §1

ET140-p35 [7] = target: T14, ET140-p35 (human, cysteine pairing not given here); assay: as above
T14 construct: also called peptide 35
T14 peptide: Biotin-SGSGTCQRYCNASVTNSVK
Experimental: as §1

ET140-p36 [8] = target: T15, ET140-p36 (human, cysteine pairing not given here); assay: as above
T15 construct: also called peptide 36
T15 peptide: Biotin-SGSGCQRYCNASVTNSVKG
Experimental: as §1

ET140-p38 = target: T16, ET140-p38 (human); assay: as above
T16 construct: also called peptide 38
T16 peptide: Biotin-SGSGRYCNASVTNSVKGTN
Experimental: as §1

ET140-p2 [9] = target: T1, ET140-p2; assay: peptide ELISA on streptavidin plate, antibody 1 ug/mL
Experimental: as §1

ET140-p3 [10] = target: T2, ET140-p3; assay: as above
Experimental: as §1

ET140-p5 = target: T17, ET140-p5 (human); assay: as above
T17 construct: also called peptide 5
T17 peptide: Biotin-SGSGGQCSQNEYFDSLLHA
Experimental: as §1

ET140-p9 = target: T18, ET140-p9 (human, cysteine pairing not given here); assay: as above
T18 construct: also called peptide 9
T18 peptide: Biotin-SGSGQNEYFDSLLHACIPC
Experimental: as §1

ET140-p14 = target: T19, ET140-p14 (human, cysteine pairing not given here); assay: as above
T19 construct: also called peptide 14
T19 peptide: Biotin-SGSGDSLLHACIPCQLRCS
Experimental: as §1

ET140-p16 [11] = target: T6, ET140-p16; assay: as above
Experimental: as §1

ET140-p18 = target: T20, ET140-p18 (human, cysteine pairing not given here); assay: as above
T20 construct: also called peptide 18
T20 peptide: Biotin-SGSGHACIPCQLRCSSNTP
Experimental: as §1

ET140-p20 [12] = target: T7, ET140-p20; assay: as above
Experimental: as §1

ET140-p22 = target: T21, ET140-p22 (human, cysteine pairing not given here); assay: as above
T21 construct: also called peptide 22
T21 peptide: Biotin-SGSGPCQLRCSSNTPPLTC
Experimental: as §1

ET140-p23 [13] = target: T8, ET140-p23; assay: as above
Experimental: as §1

ET140-p24 = target: T22, ET140-p24 (human, cysteine pairing not given here); assay: as above
T22 construct: also called peptide 24
T22 peptide: Biotin-SGSGQLRCSSNTPPLTCQR
Experimental: as §1

ET140-p34 [14] = target: T13, ET140-p34; assay: as above
Experimental: as §1

ET140-p35 [15] = target: T14, ET140-p35; assay: as above
Experimental: as §1

ET140-p36 [16] = target: T15, ET140-p36; assay: as above
Experimental: as §1

ET140-p39 = target: T23, ET140-p39 (human); assay: as above
T23 construct: also called peptide 39
T23 peptide: Biotin-SGSGYCNASVTNSVKGTNA
Experimental: as §1

binding result (ET140-p2 [1]): no binding (tested: 1 ug/mL) | binding result (ET140-p3 [2]): no binding (tested: 1 ug/mL) | binding result (ET140-p4): no binding (tested: 1 ug/mL) | binding result (ET140-p10): no binding (tested: 1 ug/mL) | binding result (ET140-p11): no binding (tested: 1 ug/mL) | binding result (ET140-p16 [3]): no binding (tested: 1 ug/mL) | binding result (ET140-p20 [4]): no binding (tested: 1 ug/mL) | binding result (ET140-p23 [5]): no binding (tested: 1 ug/mL) | binding result (ET140-p26): no binding (tested: 1 ug/mL) | binding result (ET140-p30): no binding (tested: 1 ug/mL) | binding result (ET140-p32): no binding (tested: 1 ug/mL) | binding result (ET140-p33): no binding (tested: 1 ug/mL) | binding result (ET140-p34 [6]): no binding (tested: 1 ug/mL) | binding result (ET140-p35 [7]): no binding (tested: 1 ug/mL) | binding result (ET140-p36 [8]): no binding (tested: 1 ug/mL) | binding result (ET140-p38): no binding (tested: 1 ug/mL) | A450 (ET140-p2 [9]): 0.079 | A450 (ET140-p3 [10]): 0.08 | A450 (ET140-p5): 0.073 | A450 (ET140-p9): 0.104 | A450 (ET140-p14): 0.105 | A450 (ET140-p16 [11]): 0.231 | A450 (ET140-p18): 0.099 | A450 (ET140-p20 [12]): 0.083 | A450 (ET140-p22): 0.098 | A450 (ET140-p23 [13]): 0.109 | A450 (ET140-p24): 0.357 | A450 (ET140-p34 [14]): 0.069 | A450 (ET140-p35 [15]): 0.076 | A450 (ET140-p36 [16]): 0.084 | A450 (ET140-p39): 0.071
B1: ET140-174 mIgG1 (antibody, V domains shown)
VH: EVQLVQSGAEVKKPGESLKISCKGSGYSFTSYWIGWVRQMPGKGLEWMGIIYPGDSDTRYSPSFQGHVTISADKSISTAYLQWSSLKASDTAMYYCARYSGSFDNWGQGTLVTVSS
VL: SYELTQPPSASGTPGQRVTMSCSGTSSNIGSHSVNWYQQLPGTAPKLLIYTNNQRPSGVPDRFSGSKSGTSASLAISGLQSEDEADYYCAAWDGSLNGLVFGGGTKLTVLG
notes: also called ET140-24 mIgG1; ET140-24

A450 (ET140-p2 [9]): 0.076 | A450 (ET140-p3 [10]): 0.086 | A450 (ET140-p5): 0.08 | A450 (ET140-p9): 2.25 | A450 (ET140-p14): 0.124 | A450 (ET140-p16 [11]): 0.266 | A450 (ET140-p18): 0.097 | A450 (ET140-p20 [12]): 0.087 | A450 (ET140-p22): 0.131 | A450 (ET140-p23 [13]): 0.113 | A450 (ET140-p24): 0.382 | A450 (ET140-p34 [14]): 0.099 | A450 (ET140-p35 [15]): 0.072 | A450 (ET140-p36 [16]): 0.089 | A450 (ET140-p39): 0.072
B2: ET140-153 mIgG1 (antibody, V domains shown)
VH: QVQLVQSGAEVKKPGSSVKVSCKASGGTFSSYAISWVRQAPGQGLEWMGRIIPILGIANYAQKFQGRVTITADKSTSTAYMELSSLRSEDTAVYYCARGGYYSHDMWSEDWGQGTLVTVSS
VL: LPVLTQPPSASGTPGQRVTISCSGRSSNIGSNSVNWYRQLPGAAPKLLIYSNNQRPPGVPVRFSGSKSGTSASLAISGLQSEDEATYYCATWDDNLNVHYVFGTGTKVTVLG
notes: also called ET140-3 mIgG1; ET140-3

binding result (ET140-p2 [1]): no binding (tested: 1 ug/mL) | binding result (ET140-p3 [2]): no binding (tested: 1 ug/mL) | binding result (ET140-p4): no binding (tested: 1 ug/mL) | binding result (ET140-p10): no binding (tested: 1 ug/mL) | binding result (ET140-p11): no binding (tested: 1 ug/mL) | binding result (ET140-p16 [3]): no binding (tested: 1 ug/mL) | binding result (ET140-p20 [4]): no binding (tested: 1 ug/mL) | binding result (ET140-p23 [5]): no binding (tested: 1 ug/mL) | binding result (ET140-p26): no binding (tested: 1 ug/mL) | binding result (ET140-p30): no binding (tested: 1 ug/mL) | binding result (ET140-p32): no binding (tested: 1 ug/mL) | binding result (ET140-p33): no binding (tested: 1 ug/mL) | binding result (ET140-p34 [6]): no binding (tested: 1 ug/mL) | binding result (ET140-p35 [7]): no binding (tested: 1 ug/mL) | binding result (ET140-p36 [8]): no binding (tested: 1 ug/mL) | binding result (ET140-p38): no binding (tested: 1 ug/mL) | A450 (ET140-p2 [9]): 0.076 | A450 (ET140-p3 [10]): 0.083 | A450 (ET140-p5): 0.069 | A450 (ET140-p9): 0.087 | A450 (ET140-p14): 0.104 | A450 (ET140-p16 [11]): 0.263 | A450 (ET140-p18): 0.105 | A450 (ET140-p20 [12]): 0.081 | A450 (ET140-p22): 0.111 | A450 (ET140-p23 [13]): 0.101 | A450 (ET140-p24): 0.325 | A450 (ET140-p34 [14]): 0.07 | A450 (ET140-p35 [15]): 0.071 | A450 (ET140-p36 [16]): 0.085 | A450 (ET140-p39): 0.074
B3: ET140-204 mIgG1 (antibody, V domains shown)
VH: EVQLVQSGAEMKKPGASLKLSCKASGYTFIDYYVYWMRQAPGQGLESMGWINPNSGGTNYAQKFQGRVTMTRDTSISTAYMELSRLRSDDTAMYYCARSQRDGYMDYWGQGTLVTVSS
VL: QSALTQPASVSASPGQSIAISCTGTSSDVGWYQQHPGKAPKLMIYEDSKRPSGVSNRFSGSKSGNTASLTISGLQAEDEADYYCSSNTRSSTLVFGGGTKLTVLG
notes: also called ET140-54 mIgG1; ET140-54
